B1: TPR t1 (parent)
chain: GACCAAUCUGCCCUCAGAGCUCGAGAACAUCUUCGGAUGCAGAGGAGGCAGGCUUCGGUGGCGCGAUAGCGCCAACGUCCUCAACCUCCAAUGCAUCCCACCACAUGAUGAUGCCUGAAGAGCCUUGGUUUUUUG

Variants of: B1
Assay: polymerase ribozyme fitness, log enrichment relative to wild type (log ratio); higher = more active; in vitro selection for triplet polymerase activity
How it was run: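 To select mutant libraries of each subunit of a heterodimeric triplet polymerase ribozyme, built by PCR and transcribed, each was annealed with a biotinylated primer, partner subunit and triplets, then incubated frozen at −7 °C. Extended constructs were gel-excised, captured on streptavidin beads and amplified by RT-PCR, in one round carried out in triplicate. Illumina sequencing of input and output libraries kept genotypes with ≥10 input reads and ≥1 read per output. Fitness is the base-2 logarithm of genotype enrichment relative to wild-type enrichment, from inverse-variance-weighted replicate averages.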

Question: Which “polymerase ribozyme fitness (log ratio)” value does the source give for G63A C124U here?
Answer: 0.738

Question: With C62A U87A as the variant, how does the “polymerase ribozyme fitness (log ratio)” value read?
Answer: -1.8

Question: With G61U U112A U130A as the variant, how does the “polymerase ribozyme fitness (log ratio)” value read?
Answer: 1.31

Question: With C62U A103G as the variant, how does the “polymerase ribozyme fitness (log ratio)” value read?
Answer: -5.08

Question: With C62U A103U as the variant, how does the “polymerase ribozyme fitness (log ratio)” value read?
Answer: -4.85

Question: Which “polymerase ribozyme fitness (log ratio)” value does the source give for C62A U78C here?
Answer: -1.1

Question: For C62U U78C C101G A118G U133A, which “polymerase ribozyme fitness (log ratio)” value is on record?
Answer: -2.5

Question: With G61U U78A as the variant, how does the “polymerase ribozyme fitness (log ratio)” value read?
Answer: 0.0643

Question: With G61U U78C as the variant, how does the “polymerase ribozyme fitness (log ratio)” value read?
Answer: -0.574

Question: With C62G A100U G120U as the variant, how does the “polymerase ribozyme fitness (log ratio)” value read?
Answer: -3.32

Question: For G63A C123A, which “polymerase ribozyme fitness (log ratio)” value is on record?
Answer: -0.259

Question: For C62A A75G G93A, which “polymerase ribozyme fitness (log ratio)” value is on record?
Answer: -2.34

Question: For C62A G93A, which “polymerase ribozyme fitness (log ratio)” value is on record?
Answer: -2.07

Question: Which “polymerase ribozyme fitness (log ratio)” value does the source give for C62A G93C here?
Answer: -2.37

Question: With C62G C114U U116A as the variant, how does the “polymerase ribozyme fitness (log ratio)” value read?
Answer: -5.69

Question: Which “polymerase ribozyme fitness (log ratio)” value does the source give for G63A A105U U112A here?
Answer: -3.65

Question: Which “polymerase ribozyme fitness (log ratio)” value does the source give for C62U C97U C115G here?
Answer: -3.22

Question: Which “polymerase ribozyme fitness (log ratio)” value does the source give for C62A A121C here?
Answer: 0.464

Question: With C62U U131C as the variant, how does the “polymerase ribozyme fitness (log ratio)” value read?
Answer: 0.107

Question: For G61U U81G, which “polymerase ribozyme fitness (log ratio)” value is on record?
Answer: -2.74

Question: With C62G G71U C97A A119G as the variant, how does the “polymerase ribozyme fitness (log ratio)” value read?
Answer: -4.38

Question: With C62U G135A as the variant, how does the “polymerase ribozyme fitness (log ratio)” value read?
Answer: -1.28

Question: With C62A U131C as the variant, how does the “polymerase ribozyme fitness (log ratio)” value read?
Answer: -0.63

Question: With C62A A75G as the variant, how does the “polymerase ribozyme fitness (log ratio)” value read?
Answer: -1.22

Question: For G63A C88A, which “polymerase ribozyme fitness (log ratio)” value is on record?
Answer: -1.42

Question: Which “polymerase ribozyme fitness (log ratio)” value does the source give for G61U U106C G135U here?
Answer: -1.67

Question: With G63A G93C G113U as the variant, how does the “polymerase ribozyme fitness (log ratio)” value read?
Answer: -5.1

Question: For G63A A111G, which “polymerase ribozyme fitness (log ratio)” value is on record?
Answer: -0.659

Question: With G63C A75U as the variant, how does the “polymerase ribozyme fitness (log ratio)” value read?
Answer: -0.329

Question: With C62U A95U A105U as the variant, how does the “polymerase ribozyme fitness (log ratio)” value read?
Answer: -3.17

Question: Which “polymerase ribozyme fitness (log ratio)” value does the source give for C62A A118U here?
Answer: -1.56

Question: With C62A C115A as the variant, how does the “polymerase ribozyme fitness (log ratio)” value read?
Answer: -1.58

Question: Which “polymerase ribozyme fitness (log ratio)” value does the source give for G61U G113A C115U here?
Answer: -3.08

Question: Which “polymerase ribozyme fitness (log ratio)” value does the source give for G63A C82U C85U A90U C98U A118U here?
Answer: -5.21

Question: Which “polymerase ribozyme fitness (log ratio)” value does the source give for C62U G63U U109G here?
Answer: -7.47

Question: With C62G U116A as the variant, how does the “polymerase ribozyme fitness (log ratio)” value read?
Answer: -4.13

Question: Which “polymerase ribozyme fitness (log ratio)” value does the source give for C62G A111C here?
Answer: -1.87

Question: With C62U C88A as the variant, how does the “polymerase ribozyme fitness (log ratio)” value read?
Answer: -0.404

Question: With G61U G113A as the variant, how does the “polymerase ribozyme fitness (log ratio)” value read?
Answer: -0.951

Question: For C62U U78C C85A U92C C97A, which “polymerase ribozyme fitness (log ratio)” value is on record?
Answer: -6.24

Question: For G61U G110A, which “polymerase ribozyme fitness (log ratio)” value is on record?
Answer: -0.469

Question: For C62A G69U, which “polymerase ribozyme fitness (log ratio)” value is on record?
Answer: -3.2

Question: With C62U G110A as the variant, how does the “polymerase ribozyme fitness (log ratio)” value read?
Answer: -1.23

Question: For G61U U87G, which “polymerase ribozyme fitness (log ratio)” value is on record?
Answer: 0.809

Question: For C62U U92G C99A C124U U131C, which “polymerase ribozyme fitness (log ratio)” value is on record?
Answer: -5.96

Question: For C62U G120C, which “polymerase ribozyme fitness (log ratio)” value is on record?
Answer: 0.344

Question: For C62G G113U, which “polymerase ribozyme fitness (log ratio)” value is on record?
Answer: -4.24

Question: For C62G C82A, which “polymerase ribozyme fitness (log ratio)” value is on record?
Answer: -1.67

Question: Which “polymerase ribozyme fitness (log ratio)” value does the source give for G63A A119G here?
Answer: -0.0262

Question: With G63A C89A U131G as the variant, how does the “polymerase ribozyme fitness (log ratio)” value read?
Answer: -3.23

Question: With G63A U116A as the variant, how does the “polymerase ribozyme fitness (log ratio)” value read?
Answer: -3.92

Question: Which “polymerase ribozyme fitness (log ratio)” value does the source give for G63A U116G here?
Answer: -3.24

Question: With C62A C79U C82A A111C as the variant, how does the “polymerase ribozyme fitness (log ratio)” value read?
Answer: -0.967

Question: For C62U A66G, which “polymerase ribozyme fitness (log ratio)” value is on record?
Answer: -1.54

Question: For C62U U112A, which “polymerase ribozyme fitness (log ratio)” value is on record?
Answer: 1.02

Question: Which “polymerase ribozyme fitness (log ratio)” value does the source give for C62U U112G here?
Answer: -0.737

Question: Which “polymerase ribozyme fitness (log ratio)” value does the source give for C62A A119C C123U here?
Answer: -2.98

Question: Which “polymerase ribozyme fitness (log ratio)” value does the source give for G61U G117C U131C here?
Answer: -3.82

Question: With G63A A91C as the variant, how does the “polymerase ribozyme fitness (log ratio)” value read?
Answer: -4.17

Question: Which “polymerase ribozyme fitness (log ratio)” value does the source give for G63A A91G here?
Answer: -2.33

Question: With C62G U106G as the variant, how does the “polymerase ribozyme fitness (log ratio)” value read?
Answer: -4.29

Question: Which “polymerase ribozyme fitness (log ratio)” value does the source give for C62U G69A C97G G110C here?
Answer: -6.75

Question: Which “polymerase ribozyme fitness (log ratio)” value does the source give for C62G G63U here?
Answer: -7.04

Question: With C62G G63A as the variant, how does the “polymerase ribozyme fitness (log ratio)” value read?
Answer: -3.83

Question: Which “polymerase ribozyme fitness (log ratio)” value does the source give for C62A A66U C73U A95C C123U here?
Answer: -5.94

Question: Which “polymerase ribozyme fitness (log ratio)” value does the source give for C62A U106A here?
Answer: -1.37

Question: Which “polymerase ribozyme fitness (log ratio)” value does the source give for C62U C86G here?
Answer: -0.606

Question: With C62A U96A U112C as the variant, how does the “polymerase ribozyme fitness (log ratio)” value read?
Answer: -0.2

Question: Which “polymerase ribozyme fitness (log ratio)” value does the source give for G63A G128A here?
Answer: -2.19

Question: Which “polymerase ribozyme fitness (log ratio)” value does the source give for G63A G128C here?
Answer: -3.34

Question: For C62A C64U C114A A121U C123G, which “polymerase ribozyme fitness (log ratio)” value is on record?
Answer: -4.48

Question: Which “polymerase ribozyme fitness (log ratio)” value does the source give for C62U A121G U125C here?
Answer: -0.0117

Question: For G63A A84C, which “polymerase ribozyme fitness (log ratio)” value is on record?
Answer: -0.832

Question: With C62U U130A as the variant, how does the “polymerase ribozyme fitness (log ratio)” value read?
Answer: -0.419

Question: For C62U C99U, which “polymerase ribozyme fitness (log ratio)” value is on record?
Answer: -3.59

Question: With G61U U92G as the variant, how does the “polymerase ribozyme fitness (log ratio)” value read?
Answer: -2.97

Question: For C62A G110A U126G, which “polymerase ribozyme fitness (log ratio)” value is on record?
Answer: -3.4

Question: Which “polymerase ribozyme fitness (log ratio)” value does the source give for G61U U96G here?
Answer: -0.881

Question: Which “polymerase ribozyme fitness (log ratio)” value does the source give for G63A C79G U109G here?
Answer: -7.2

Question: For C62G U78G, which “polymerase ribozyme fitness (log ratio)” value is on record?
Answer: -2.88

Question: With C62A U109C as the variant, how does the “polymerase ribozyme fitness (log ratio)” value read?
Answer: -4.04

Question: Which “polymerase ribozyme fitness (log ratio)” value does the source give for C62A U109G here?
Answer: -6.74

Question: For C62A G77U U78A A119U G128C, which “polymerase ribozyme fitness (log ratio)” value is on record?
Answer: -5.16
